The source of these data is PMC9515098, “Structural basis for the activity regulation of a potassium channel AKT1 from Arabidopsis” (Nature Communications, 2022).

Data set [1] deals with the molecule itself. Briefly: cryo-EM structure; single-particle cryo-EM of the purified channel from Sf9 cells; 25 mM Tris-HCl pH 7.4, 150 mM KCl, 0.1% digitonin.
Data set [2] concerns the molecule itself. Briefly: cryo-EM structure; cryo-EM, 2D classification only (preliminary analysis); no map or model reported.
Data set [3] concerns the molecule itself. In words: cryo-EM structure; single-particle cryo-EM of AKT1 co-expressed with CIPK23 and CBL1 in HEK293 cells; 0.08% digitonin, 0.5 mM CaCl2, 5 mM MnCl2, 1 mM ATP, 1 mM sodium orthovanadate; map at about 11 Å.

B1: AKT1 Asp379Ala, constitutively-active variant (Flag-tagged, from Sf9 cells) (natural protein)
chain: not shown
notes: Potassium channel AKT1, Arabidopsis thaliana, UniProt Q38998, with the point mutation Asp379Ala; Two cryo-EM classes (4-fold and 2-fold symmetric cytoplasmic domain); also called AKT1-D379A; constitutively-active mutant; source: Sf9 insect cells (Bac-to-bac baculovirus), purified by the same protocol as AKT1
B1: the binding result in data set [1] was “binds”.

B2: Arabidopsis thaliana potassium channel AKT1, wild type (Flag-tagged, from Sf9 cells) (natural protein)
chain: not shown
notes: Potassium channel AKT1, Arabidopsis thaliana, UniProt Q38998; Homotetramer in the cryo-EM structure; also called WT AKT1; AKT1 WT
For the protein B2, in data set [1], the “stoichiometry N” value amounted to 4.

B3: AKT1_(16-857), AKT1 lacking the N-terminal 15 residues (domain or fragment)
chain: not shown
notes: source: purified
As to B3, in data set [2], the binding result is recorded as “binds”.

B4: Phosphorylated AKT1 (AKT1 co-expressed with CIPK23 and CBL1 in HEK293 cells) (natural protein)
chain: not shown
modifications: phosphoserine at Ser26 and Ser338 (found by mass spectrometry after co-expression with CIPK23 and CBL1)
notes: Potassium channel AKT1, Arabidopsis thaliana, UniProt Q38998
In the case of B4, the binding result in data set [3] was “binds”.
